Test results as given in patent publication US8043804B2, “DBC1, a novel native inhibitor of anti-aging protein SIRT1” (The Trustees of Columbia University in the City of New York, priority 2007, dated 2011).

What was measured:
Format in all cases: biochemical
SIRT2 = molecular target: T1, SIRT2 (Homo sapiens, UniProt Q8IXJ6); test: In vitro deacetylation assay, acetylated tubulin as substrate of purified SIRT2; details: nicotinamide 5 mM, increasing amounts of DBC1 (FIG. 3d)
T1 construct: made in house; host or cells: transfected mammalian cells (293 cells are named for the Flag-SIRT constructs)
T1 sequence (Q8IXJ6 1-389): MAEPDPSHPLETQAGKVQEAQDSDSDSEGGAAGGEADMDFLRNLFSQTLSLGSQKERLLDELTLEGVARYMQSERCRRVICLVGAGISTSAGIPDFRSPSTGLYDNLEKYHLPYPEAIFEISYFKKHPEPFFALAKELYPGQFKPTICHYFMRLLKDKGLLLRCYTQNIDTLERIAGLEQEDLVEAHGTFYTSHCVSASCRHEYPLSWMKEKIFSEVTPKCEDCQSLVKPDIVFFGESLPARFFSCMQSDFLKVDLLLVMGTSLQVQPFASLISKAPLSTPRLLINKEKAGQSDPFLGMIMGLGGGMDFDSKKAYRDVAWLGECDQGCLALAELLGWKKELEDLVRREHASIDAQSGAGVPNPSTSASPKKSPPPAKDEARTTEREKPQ

SIRT1 = molecular target: T2, SIRT1 (Homo sapiens, UniProt Q96EB6); test: In vitro deacetylation assay, acetylated p53 as substrate of purified Flag-SIRT1; details: purified system, 50 μM NAD, dose dependent, Western blot (FIG. 3c)
T2 construct: made in house
T2 sequence (Q96EB6 1-747): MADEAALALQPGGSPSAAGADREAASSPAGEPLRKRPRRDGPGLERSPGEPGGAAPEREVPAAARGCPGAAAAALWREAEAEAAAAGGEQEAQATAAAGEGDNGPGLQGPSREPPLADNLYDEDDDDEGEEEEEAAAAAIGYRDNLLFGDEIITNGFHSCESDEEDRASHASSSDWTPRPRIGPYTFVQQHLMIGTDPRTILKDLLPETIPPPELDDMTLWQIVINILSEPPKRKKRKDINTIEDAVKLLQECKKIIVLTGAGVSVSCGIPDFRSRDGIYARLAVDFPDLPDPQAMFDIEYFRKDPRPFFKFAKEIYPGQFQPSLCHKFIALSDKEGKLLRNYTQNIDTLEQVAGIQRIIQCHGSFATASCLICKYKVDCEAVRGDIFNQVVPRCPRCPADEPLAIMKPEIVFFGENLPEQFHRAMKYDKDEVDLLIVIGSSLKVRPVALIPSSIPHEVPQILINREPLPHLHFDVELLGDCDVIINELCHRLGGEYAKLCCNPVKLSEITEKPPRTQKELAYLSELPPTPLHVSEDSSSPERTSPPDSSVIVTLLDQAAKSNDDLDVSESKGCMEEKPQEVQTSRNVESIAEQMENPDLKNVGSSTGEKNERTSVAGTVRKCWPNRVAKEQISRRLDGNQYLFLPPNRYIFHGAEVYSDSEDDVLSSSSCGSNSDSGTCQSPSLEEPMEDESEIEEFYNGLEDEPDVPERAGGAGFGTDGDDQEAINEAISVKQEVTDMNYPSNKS
Experimental: FIG. 3. DBC1 inhibits SIRT1 mediated deacetylation of p53 (a) Fractionation of immunoprecipitated F-SIRT1 complex. 293 cells were transfected with Flag-tagged SIRT1 and Flag-SIRT1 complexes were subsequently purified by M2-immunoprecipitation in FLAG-lysis buffer. Flag-SIRT1 complex was eluted in 100 ul of elution buffer and half of the elution was fractioned by size-exclusion chromatography on a Sepherose12 Column on the SMART system. 10% of each fraction was analyzed by Western Blot for DBC1 (upper panel) and SIRT1 (lower panel). (b) DBC1 inhibits SIRT1 mediated deacetylation of p53 in vitro. […] The reactions were resolved on SDS-PAGE and analyzed by Western Blot using antibodies specific for acetylated p53, total p53 (DO-1), SIRT1 and DBC1. […] The reactions were resolved on SDS-Page and analyzed by Western Blot using antibodies specific for acetylated p53, total p53, SIRT1 and DBC1. […]
Although the deacetylase activity of SIRT1 is essential for its function, it is unknown how this activity is regulated. When purified Flag-SIRT1 complexes from human cells were analyzed by gel-filtration chromatography on a Superose 12 column (SMART system), SIRT1 and DBC1 polypeptides co-eluted in fraction 15 with an apparent molecular weight of 440 KDa (lane 4, FIG. 3a). […]

HDAC1 = HDAC1 (Homo sapiens, UniProt Q13547); test: In vitro deacetylation of p53 by purified HDAC1 complex; details: purified HDAC1 complexes, increasing amounts of DBC1 (FIG. 9)
Experimental: FIG. 9. Effect of DBC1 on HDAC1 mediated p53 deacetylation in vitro. Purified HDAC1 complex was used to deacetylate p53 in vitro (lane 2). Increasing amounts of DBC1 were added in addition to HADC1 (lanes 3-4) to investigate whether DBC1 can inhibit p53 deacetylation by HDAC1. […] The samples were resolved by SDS-PAGE and analyzed by Western Blot using antibodies for acetylated p53, total p53 (DO-1), HDAC1 and DBC1.
Finally, p53 could also be deacetylated by purified HDAC1 complexes as previously shown (Luo, 2000) (lane 2, FIG. 9); this deacetylase activity was not repressed by DBC1 (lanes 3-4).

Sequence of HDAC1 (Q13547 whole entry, species assumed): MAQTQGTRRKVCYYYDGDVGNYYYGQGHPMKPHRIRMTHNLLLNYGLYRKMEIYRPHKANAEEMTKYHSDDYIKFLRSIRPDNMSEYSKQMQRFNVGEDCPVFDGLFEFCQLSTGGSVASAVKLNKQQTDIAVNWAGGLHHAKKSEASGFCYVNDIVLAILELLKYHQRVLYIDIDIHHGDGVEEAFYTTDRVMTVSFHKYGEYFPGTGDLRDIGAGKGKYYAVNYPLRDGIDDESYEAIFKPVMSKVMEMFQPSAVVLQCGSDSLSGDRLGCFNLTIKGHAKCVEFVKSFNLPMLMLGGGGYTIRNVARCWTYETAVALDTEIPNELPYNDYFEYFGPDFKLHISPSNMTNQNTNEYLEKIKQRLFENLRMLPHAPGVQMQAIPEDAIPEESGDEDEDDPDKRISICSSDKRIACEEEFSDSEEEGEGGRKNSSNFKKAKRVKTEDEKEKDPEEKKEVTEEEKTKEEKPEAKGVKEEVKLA

Row | Molecule | SIRT2-mediated deacetylation of acetylated tubulin (SIRT2) | SIRT1-mediated deacetylation of acetylated p53 (SIRT1) | HDAC1-mediated deacetylation of p53 (HDAC1)
1 | NC(=O)c1cccnc1 [nicotinamide, reference compound] | inhibited |  | 
2 | Flag-DBC1: Flag-tagged Deleted in Breast Cancer 1 protein purified by M2 immunoprecipitation under high stringency | not affected | strongly repressed | not repressed
